Laboratory results published in PMC4027156.
Residue numbers refer to the chain shown, from its start.

Key:
Conditions in all cases: BLI in buffer A (5 mM HEPES pH 7.5, 10 mM NaCl), 2.5-10 uM protein; CD with 7.5 or 15 uM ds-(dCdG)6, protein/DNA 0-8, buffer not shown in material; temperature …
[1] = test system: yabZαE3L (yaba-like disease virus); experiment: BLI
[2] = target: T1, caZαPKZ K56A/P57A K56A;P57A (Carassius auratus) (UniProt Q7T2M9); experiment: CD B-to-Z transition
T1 sequence: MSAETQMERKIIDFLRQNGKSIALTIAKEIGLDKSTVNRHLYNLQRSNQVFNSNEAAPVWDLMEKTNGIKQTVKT

[3] = target: T2, caZαPKZ R39A/K56A R39A;K56A (Carassius auratus) (UniProt Q7T2M9); experiment: CD B-to-Z transition
T2 sequence: T1 sequence with R39A, A57P

[4] = target: T3, caZαPKZ S35A/K56A/P57A S35A;K56A;P57A (Carassius auratus) (UniProt Q7T2M9); experiment: CD B-to-Z transition
T3 sequence: T1 sequence with S35A

Row | Sequence | Kd [1] [nM] | binding signal (% of WT activity) [2] | binding signal (% of WT activity) [3] | binding signal (% of WT activity) [4]
1 | ATTATATCGCGCGCGCGCGCGCGCGCGCG / CGCGCGCGCGCGCGCGCGCG [biotin-ATTATAT(CG)10 duplex] | 87.2 |  |  | 
2 | CGCGCGCGCGCG (double strand) [ds-(dCdG)6] |  | 50 | 80 | 50
